{"source": "patent US20100311659A1", "key": {"[1]": {"tested_on": "T1, wild-type FVIII (recombinant human factor VIII with deletion of the B domain)", "T1 sequence": "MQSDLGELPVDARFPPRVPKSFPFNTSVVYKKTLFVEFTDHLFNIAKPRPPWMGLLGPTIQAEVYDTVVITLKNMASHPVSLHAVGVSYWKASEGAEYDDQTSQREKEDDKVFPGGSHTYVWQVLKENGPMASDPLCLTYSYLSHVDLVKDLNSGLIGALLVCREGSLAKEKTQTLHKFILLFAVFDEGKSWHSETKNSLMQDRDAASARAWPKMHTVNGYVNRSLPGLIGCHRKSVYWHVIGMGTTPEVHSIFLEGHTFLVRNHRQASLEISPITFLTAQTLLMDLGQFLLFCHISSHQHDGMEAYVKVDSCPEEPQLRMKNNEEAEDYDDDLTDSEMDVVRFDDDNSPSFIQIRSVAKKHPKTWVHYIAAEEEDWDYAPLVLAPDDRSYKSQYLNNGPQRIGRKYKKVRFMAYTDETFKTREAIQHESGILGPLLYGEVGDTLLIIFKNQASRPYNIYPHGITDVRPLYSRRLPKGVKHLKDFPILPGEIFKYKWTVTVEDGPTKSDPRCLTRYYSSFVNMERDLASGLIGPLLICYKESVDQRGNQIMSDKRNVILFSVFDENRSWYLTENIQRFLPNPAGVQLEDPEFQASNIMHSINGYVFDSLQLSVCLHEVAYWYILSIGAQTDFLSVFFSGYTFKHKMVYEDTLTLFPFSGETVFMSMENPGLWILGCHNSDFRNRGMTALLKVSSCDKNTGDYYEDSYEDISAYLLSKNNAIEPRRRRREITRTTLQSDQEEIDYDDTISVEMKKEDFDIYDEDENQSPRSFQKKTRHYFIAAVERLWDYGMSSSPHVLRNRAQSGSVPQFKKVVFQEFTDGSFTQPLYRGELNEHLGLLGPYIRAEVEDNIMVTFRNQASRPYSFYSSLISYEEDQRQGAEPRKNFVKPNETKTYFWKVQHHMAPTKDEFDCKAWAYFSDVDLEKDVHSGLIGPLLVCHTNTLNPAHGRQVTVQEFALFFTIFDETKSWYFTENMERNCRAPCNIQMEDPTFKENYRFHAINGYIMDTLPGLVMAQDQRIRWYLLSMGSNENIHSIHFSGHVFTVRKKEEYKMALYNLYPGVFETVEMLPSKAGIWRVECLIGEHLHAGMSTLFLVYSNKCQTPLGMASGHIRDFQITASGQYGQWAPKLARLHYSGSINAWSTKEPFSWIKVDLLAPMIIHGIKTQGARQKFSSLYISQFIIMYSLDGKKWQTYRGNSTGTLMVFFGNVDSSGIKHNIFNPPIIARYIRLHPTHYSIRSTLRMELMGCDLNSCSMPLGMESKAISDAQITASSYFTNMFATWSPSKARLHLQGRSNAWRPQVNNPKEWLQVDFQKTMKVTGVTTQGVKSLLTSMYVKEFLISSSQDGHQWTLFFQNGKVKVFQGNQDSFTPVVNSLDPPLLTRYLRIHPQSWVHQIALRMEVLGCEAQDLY"}, "[2]": {"tested_on": "FVIII-4A2 (quadruple mutant combining the A2 mutations 409, 462, 507, 629)"}}, "data": [{"substance": "Thrombin", "values": [{"measurement": "activation by thrombin (FXa generation over time)", "setting": "[1]", "value": "FVIII-4A2 is identically recognized by thrombin as wild-type FVIII with a relative decrease of activity which might be caused by one of the four mutations"}, {"measurement": "activation by thrombin (FXa generation over time)", "setting": "[2]", "value": "FVIII-4A2 is identically recognized by thrombin as wild-type FVIII with a relative decrease of activity which might be caused by one of the four mutations"}]}]}
